{
  "source": "patent US9644034B2",
  "about": "“Anti-RSPO2 antibodies and uses thereof” (OncoMed Pharmaceuticals, Inc., priority 2011, dated 2017)",
  "key": {"β-catenin signaling": {"test_system": "β-catenin signaling", "test": "Luciferase assay in STF-293 cells with LU2 cells, lung tumor cell-conditioned medium and Wnt3a-L cell-conditioned medium", "type": "cell-based, human", "protocol": "Conditioned medium from human lung tumor LU2 cells was prepared as described in Example 3 and soluble LGR5-Fc was produced as described in Example 2.\nSTF-293 cells were incubated with LU2 cells plus 25% lung tumor cell-conditioned medium plus 25% Wnt3a-L cell-conditioned medium. Antibody 130M23 and soluble LGR5-Fc were added to the cells in 5-fold serially dilutions from 50 μg/ml to 0.0006 μg/ml. An irrelevant monoclonal antibody, similarly diluted, and a control Fc fusion protein (50 ug/ml) were used as negative controls. The cells were incubated for 20 hours and luciferase activity was measured using Steady-Glo® Luciferase Assay System according to the manufacturer's instructions (Promega, Madison, Wis.)."}, "[1]": {"test_system": "PN31 pancreatic tumor cells", "test": "PN31 pancreatic tumor xenograft growth in NOD/SCID mice", "type": "in vivo", "settings": "antibodies 15 mg/kg once a week, intraperitoneal", "protocol": "Dissociated PN31 pancreatic tumor cells (1×10^5cells) were injected subcutaneously into the flanks of 6-8 week old NOD/SCID mice. Tumors were allowed to grow for 61 days until they reached an average volume of 120 mm^3. The mice were randomized (n=10 per group) and treated with anti-RSPO1 antibody 89M5, anti-RSPO2 antibody 130M23, gemcitabine, a combination of 89M5 and gemcitabine, a combination of 130M23 and gemcitabine, or control antibody 1B7.11. Antibodies were dosed at 15 mg/kg once a week, and gemcitabine was dosed at […] once a week. Administration of the antibodies and gemcitabine was performed via injection into the intraperitoneal cavity. Tumor growth was monitored and tumor volumes were measured with electronic calipers at specific time points. Data are expressed as mean±S.E.M."}, "[2]": {"test_system": "PN7 pancreatic tumor cells", "test": "PN7 pancreatic tumor xenograft growth in NOD/SCID mice", "type": "in vivo", "protocol": "Dissociated PN7 pancreatic tumor cells (1×10^5cells) were injected subcutaneously into the flanks of 6-8 week old NOD/SCID mice. Tumors were allowed to grow for 25 days until they reached an average volume of 130 mm^3. The mice were randomized (n=10 per group) and treated with anti-RSPO2 antibody 130M23, anti-FZD antibody 18R5, gemcitabine, a combination of 130M23 and gemcitabine, a combination of 18R5 and gemcitabine, a combination of 130M23 and 18R5, a combination of 130M23, 18R5 and gemcitabine, or control antibody 1B7.11. Anti-RSPO2 antibody 130M23 was dosed at 10 mg/kg once a week, anti-FZD antibody 18R5 was dosed at 20 mg/kg once a week, and gemcitabine was dosed at […] once a week. Administration of the antibodies and gemcitabine was performed via injection into the intraperitoneal cavity. Tumor growth was monitored and tumor volumes were measured with electronic calipers at specific time points. Data are expressed as mean±S.E.M. A parallel set of experiments included mice treated with a FZD8-Fc soluble receptor (10 mg/kg) in combination with gemcitabine and FZD8-Fc in combination with 130M23 and gemcitabine."}, "binding of RSPO2 to LGR5": {"target": "T1, binding of RSPO2 to LGR5 (Homo sapiens, UniProt Q6UXX9)", "T1 construct": "full-length human RSPO1, RSPO2, RSPO3 and RSPO4 were ligated in-frame to a human Fc region; made in house; host or cells: RSPO2-Fc: insect cells (baculovirus); LGR5 construct: transiently transfected HEK-293", "T1 sequence (Q6UXX9 22-243 L186P)": "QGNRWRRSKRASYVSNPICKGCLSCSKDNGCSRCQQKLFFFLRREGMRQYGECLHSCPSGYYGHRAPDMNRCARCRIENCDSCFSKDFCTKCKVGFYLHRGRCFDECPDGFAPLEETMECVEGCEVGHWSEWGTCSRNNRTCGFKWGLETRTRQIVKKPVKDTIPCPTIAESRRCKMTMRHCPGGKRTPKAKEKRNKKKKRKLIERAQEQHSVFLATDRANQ", "test": "FACS: blocking of soluble RSPO2-Fc binding to LGR5 on HEK-293 cells", "settings": "RSPO2-Fc 10 μg/ml", "protocol": "HEK-293 cells were transiently transfected with the FLAG-LGR5-CD4TM-GFP construct (previously described in Example 2). After 48 hours, transfected cells were suspended in ice cold PBS containing 2% FBS and heparin and incubated on ice in the presence of RSPO2-Fc protein (10 μg/ml) and antibodies 130M23, 130M24, 130M25, 130M26, 130M27, and 130M28. A second incubation with 100 μl PE-conjugated anti-human Fc secondary antibody was performed to detect cells bound by the RSPO2-Fc fusion protein. The cells were analyzed on a FACSCalibur instrument (BD Biosciences, San Jose, Calif.) and the data was processed using FlowJo software."}, "PN7 tumors": {"test_system": "PN7 tumors", "test": "Serial transplantation of cells from treated PN7 tumors (tumorigenicity)", "type": "in vivo, NOD-SCID mice", "settings": "90 cells injected, 40 days growth with no treatment; vs control antibody", "protocol": "The PN7 tumors described above were processed to yield single cell suspensions. Mouse cells were depleted from the cell mixtures using biotinylated anti-H2K^d and anti-CD45 antibodies and streptavidin-conjugated magnetic beads. The remaining human tumor cells were serially transplanted into a new cohort of mice. 90 tumor cells from each treatment group were injected into the flanks of NOD-SCID mice (n=10 mice per group). Tumors were allowed to grow for 40 days with no treatment and tumor volumes were measured with electronic calipers."}, "[3]": {"test_system": "RSPO2-induced β-catenin signaling", "test": "TOPflash luciferase assay in HEK-293 cells, Wnt3a plus human RSPO2", "type": "cell-based", "settings": "Wnt3a 5 ng/ml, RSPO2 10 ng/ml", "protocol": "(§1) HEK-293 cells were transfected with a 6×TCF-luciferase reporter vector (TOPflash, Millipore, Billerica, Mass.). After 24-48 hrs, the transfected HEK-293 cells were incubated with a combination of Wnt3a (5 ng/ml) and human RSPO2 (10 ng/ml, R&D BioSystems) or human RSPO3 (10 ng/ml, R&D BioSystems) in the presence of anti-RSPO2 antibodies 130M23, 130M24, 130M25, 130M26, 130M27, and 130M28. Cells were incubated with a combination of Wnt3a and RSPO, Wnt3a only or with no addition as controls. The cells were incubated for 16 hours and luciferase activity was measured using Steady-Glo® Luciferase Assay System according to the manufacturer's instructions (Promega, Madison, Wis.)."}, "human RSPO2 [4]": {"target": "T2, human RSPO2 (Homo sapiens, UniProt Q6UXX9)", "T2 construct": "followed by the furin-like domains of RSPO2 (aa 31-146); expressed in transfected cells; host or cells: HEK-293", "T2 sequence (Q6UXX9 31-146)": "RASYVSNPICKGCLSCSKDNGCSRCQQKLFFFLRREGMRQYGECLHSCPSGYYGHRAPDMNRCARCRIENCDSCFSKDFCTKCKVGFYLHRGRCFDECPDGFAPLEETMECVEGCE", "test": "FACS screening of hybridoma supernatants on HEK-293 cells expressing FLAG-RSPO2furin-CD4TM-GFP", "type": "binding", "source_text": "Antibodies were generated against recombinant human RSPO2 protein amino acids 22-205 (R&D Systems, Minneapolis, Minn.). Mice (n=3) were immunized with RSPO2 protein using standard techniques. Sera from individual mice were screened against RSPO2 approximately 70 days after initial immunization using FACS analysis. The animal with the highest antibody titer was selected for final antigen boost after which spleen cells were isolated for hybridoma production. SP2/0 cells were used as fusion partners for the mouse spleen cells. Hybridoma cells were plated at 1 cell per well in 96 well plates, and the supernatants were screened against human RSPO2 by FACS analysis.\nAs described in Example 5, for FACS screening of anti-RSPO2 antibodies a chimeric fusion protein enabling cell surface expression of the N-terminal furin-like domains of human RSPO2 was constructed. Similar to what is depicted in FIG. 5A for RSPO1, the RSPO2 fusion protein contains a N-terminal FLAG tag, followed by the furin-like domains of RSPO2 (aa 31-146) and fused to the transmembrane and intracellular domain of human CD4 and a C-terminal green fluorescent protein tag (FLAG-RSPO2furin-CD4TM-GFP).\nHEK-293 cells were transfected with FLAG-RSPO2furin-CD4TM-GFP. […] The cells were analyzed on a FACSCalibur instrument (BD Biosciences, San Jose, Calif.) and the data was processed using FlowJo software."}, "human RSPO2 [5]": {"target": "T2, human RSPO2", "test": "FACS binding of 130M23 and humanized 130M23 to HEK293 cells expressing FLAG-RSPO2furin-CD4TM-GFP", "settings": "five-fold serial dilutions", "protocol": "HEK293 cells were transiently transfected with an expression vector encoding FLAG-RSPO2furin-CD4TM-GFP. As described in Example 11, FLAG-RSPO2furin-CD4TM-GFP is a chimeric fusion protein enabling cell surface expression of the N-terminal furin-like domains of human RSPO2. FLAG-RSPO2furin-CD4TM-GFP transfected cells were incubated in the presence of anti-RSPO2 antibody 130M23 or humanized anti-RSPO2 antibody […]. Five-fold serial dilutions of each antibody were examined for their ability to bind to the RSPO2 expressing cells. The cells were stained with Phycoerythrin conjugated anti-IgG to reveal bound antibody. The cells were analyzed on a FACSCalibur instrument (BD Biosciences, San Jose, Calif.) and the data was processed using FlowJo software."}, "[6]": {"test_system": "β-catenin signaling induced by RSPO3", "test": "TOPflash luciferase assay in HEK-293 cells, Wnt3a plus human RSPO3", "type": "cell-based", "settings": "Wnt3a 5 ng/ml, RSPO3 10 ng/ml", "protocol": "as §1"}},
  "data": [
    {"molecule": "130M23: anti-RSPO2 monoclonal antibody, hybridoma ATCC PTA-12021; variable regions SEQ ID NO:27 and SEQ ID NO:28 (antibody, V domains shown, 130M23 Heavy chain variable region; 130M23 Light chain variable region) VH: EVKLVESGGGLVKPGGSLKFSCAASGFSFSSYAMSWVRQTPEKRLEWVASISSGGSTYYPDSVKGRFTISRDNVRNILYLQMSSLRSEDTAMYFCARGGDPGVYNGDYEDAMDYWGQGTSVTVSS VL: DIVMTQSHKFMSTSVGDRVSITCKASQDVSSAVAWYQQKPGQSPKLLIYWASTRHTGVPDRFTNSGSGTDYTLTISSVQAEDLALYYCQQHYSTPWTFGGGTKLEIK", "values": [
      {"measurement": "induction of luciferase activity by lung tumor cell-conditioned medium and Wnt3a-conditioned medium", "setting": "β-catenin signaling; increasing concentrations, 50 to 0.0006 μg/ml", "value": "reduced"},
      {"measurement": "potency relative to LGR5-Fc", "setting": "β-catenin signaling; more potent than LGR5-Fc", "value": "greater than 100 fold"},
      {"measurement": "effect on tumor growth as single agents", "setting": "[1]", "value": "only a minimal effect"},
      {"measurement": "proliferation (anti-Ki67 antibody IHC)", "setting": "[2]; PN7 tumors of treated mice", "value": "significant decrease in proliferation"},
      {"measurement": "morphology of PN7 tumors (IHC)", "setting": "[2]; treated vs untreated mice", "value": "induced morphological changes"},
      {"measurement": "reduction in tumor growth", "setting": "[2]; vs control antibody, 130M23 10 mg/kg, 18R5 20 mg/kg, gemcitabine once a week, intraperitoneal", "value": "approximately 55%"},
      {"measurement": "blocking of binding of RSPO2 to LGR5", "setting": "binding of RSPO2 to LGR5", "value": "blocked"},
      {"measurement": "tumorigenicity of cells isolated from treated mice", "setting": "PN7 tumors", "value": "greatly decreased tumorigenicity"},
      {"measurement": "effect on RSPO2-induced β-catenin signaling", "setting": "[3]", "value": "completely blocked"},
      {"measurement": "binding to RSPO2 (FACS)", "setting": "human RSPO2 [4]", "value": "bound"},
      {"measurement": "binding to human RSPO2 (FACS)", "setting": "human RSPO2 [5]", "value": "bind"},
      {"measurement": "blocking of β-catenin signaling induced by RSPO3", "setting": "[6]", "value": "did not block"}
    ]}
  ]
}
